Test results published in PMC12550018, “High-resolution native electrophoresis in-gel activity assay reveals biological insights of medium-chain fatty acyl-CoA dehydrogenase deficiency” (Scientific Reports, 2025).

How the values were obtained:
[1] = biological target: the molecule itself; experiment: SEC; Superdex 200 5/150 GL, 2 mg/ml protein, 0.1 ml PBS/min, 5 °C, absorbance at 280 nm; mass by calibration with protein standards
[2] = biological target: the molecule itself; experiment: native gel or EMSA; high-resolution clear native PAGE (hrCN-PAGE) of purified recombinant protein, 4-16% or 4-20% gradient gels, pH 7.0, cathode buffer with 0.05% sodium deoxycholate and 0.01% n-dodecyl-beta-D-maltoside; Coomassie, FAD fluorescence and acyl-CoA:NBT in-gel activity staining

Protein | stoichiometry N [1] | binding result [2]
Medium-chain specific acyl-CoA dehydrogenase (MCAD), human recombinant wild type (enzyme, UniProt P11310-1 26-421, looked up, Medium-chain specific acyl-CoA dehydrogenase (MCAD), human, encoded by ACADM; One FAD per monomer; also called MCAD WT; human recombinant MCAD; not shown: MBP, N-terminal, cleaved) KANRQREPGLGFSFEFTEQQKEFQATARKFAREEIIPVAAEYDKTGEYPVPLIRRAWELGLMNTHIPENCGGLGLGTFDACLISEELAYGCTGVQTAIEGNSLGQMPIIIAGNDQQKKKYLGRMTEEPLMCAYCVTEPGAGSDVAGIKTKAEKKGDEYIINGQKMWITNGGKANWYFLLARSDPDPKAPANKAFTGFIVEADTPGIQIGRKELNMGQRCSDTRGIVFEDVKVPKENVLIGDGAGFKVAMGAFDKTRPVVAAGAVGLAQRALDEATKYALERKTFGKLLVEHQAISFMLAEMAMKVELARMSYQRAAWEVDSGRRNTYYASIAKAFAGDIANQLATDAVQILGGNGFNTEYPVEKLMRDAKIYQIYEGTSQIQRLIVAREHIDKYKN | 4 | –
MCAD variant p.K329E, human recombinant (enzyme, UniProt P11310-1 26-421, looked up, MCAD, human, encoded by ACADM, clinically relevant variant p.K329E made by site-directed mutagenesis in pMALc2X; masses fit the mature protein (26-421); The residue number counts on the precursor; also called MCAD K329E; not shown: MBP, N-terminal, cleaved) KANRQREPGLGFSFEFTEQQKEFQATARKFAREEIIPVAAEYDKTGEYPVPLIRRAWELGLMNTHIPENCGGLGLGTFDACLISEELAYGCTGVQTAIEGNSLGQMPIIIAGNDQQKKKYLGRMTEEPLMCAYCVTEPGAGSDVAGIKTKAEKKGDEYIINGQKMWITNGGKANWYFLLARSDPDPKAPANKAFTGFIVEADTPGIQIGRKELNMGQRCSDTRGIVFEDVKVPKENVLIGDGAGFKVAMGAFDKTRPVVAAGAVGLAQRALDEATKYALERKTFGKLLVEHQAISFMLAEMAMEVELARMSYQRAAWEVDSGRRNTYYASIAKAFAGDIANQLATDAVQILGGNGFNTEYPVEKLMRDAKIYQIYEGTSQIQRLIVAREHIDKYKN | 4 | –
MCAD variant p.R206C, human recombinant (enzyme, UniProt P11310-1 26-421, looked up, MCAD, human, encoded by ACADM, clinically relevant variant p.R206C made by site-directed mutagenesis in pMALc2X; masses fit the mature protein (26-421); The residue number counts on the precursor; Native MS: only three FAD per tetramer; also called MCAD R206C; not shown: MBP, N-terminal, cleaved) KANRQREPGLGFSFEFTEQQKEFQATARKFAREEIIPVAAEYDKTGEYPVPLIRRAWELGLMNTHIPENCGGLGLGTFDACLISEELAYGCTGVQTAIEGNSLGQMPIIIAGNDQQKKKYLGRMTEEPLMCAYCVTEPGAGSDVAGIKTKAEKKGDEYIINGQKMWITNGGKANWYFLLACSDPDPKAPANKAFTGFIVEADTPGIQIGRKELNMGQRCSDTRGIVFEDVKVPKENVLIGDGAGFKVAMGAFDKTRPVVAAGAVGLAQRALDEATKYALERKTFGKLLVEHQAISFMLAEMAMKVELARMSYQRAAWEVDSGRRNTYYASIAKAFAGDIANQLATDAVQILGGNGFNTEYPVEKLMRDAKIYQIYEGTSQIQRLIVAREHIDKYKN | 4 | –
MCAD variant p.Y67H, human recombinant (enzyme, UniProt P11310-1 26-421, looked up, MCAD, human, encoded by ACADM, clinically relevant variant p.Y67H made by site-directed mutagenesis in pMALc2X; masses fit the mature protein (26-421); The residue number counts on the precursor; also called MCAD Y67H; not shown: MBP, N-terminal, cleaved) KANRQREPGLGFSFEFTEQQKEFQATARKFAREEIIPVAAEHDKTGEYPVPLIRRAWELGLMNTHIPENCGGLGLGTFDACLISEELAYGCTGVQTAIEGNSLGQMPIIIAGNDQQKKKYLGRMTEEPLMCAYCVTEPGAGSDVAGIKTKAEKKGDEYIINGQKMWITNGGKANWYFLLARSDPDPKAPANKAFTGFIVEADTPGIQIGRKELNMGQRCSDTRGIVFEDVKVPKENVLIGDGAGFKVAMGAFDKTRPVVAAGAVGLAQRALDEATKYALERKTFGKLLVEHQAISFMLAEMAMKVELARMSYQRAAWEVDSGRRNTYYASIAKAFAGDIANQLATDAVQILGGNGFNTEYPVEKLMRDAKIYQIYEGTSQIQRLIVAREHIDKYKN | 4 | –
Glutaryl-CoA dehydrogenase (GCDH), human recombinant wild type (enzyme, UniProt Q92947 45-438, looked up, Glutaryl-CoA dehydrogenase, human, wild type; source: purified by a procedure similar to that for MCAD (E. coli, MBPTrap, TEV digestion, SEC)) RPEFDWQDPLVLEEQLTTDEILIRDTFRTYCQERLMPRILLANRNEVFHREIISEMGELGVLGPTIKGYGCAGVSSVAYGLLARELERVDSGYRSAMSVQSSLVMHPIYAYGSEEQRQKYLPQLAKGELLGCFGLTEPNSGSDPSSMETRAHYNSSNKSYTLNGTKTWITNSPMADLFVVWARCEDGCIRGFLLEKGMRGLSAPRIQGKFSLRASATGMIIMDGVEVPEENVLPGASSLGGPFGCLNNARYGIAWGVLGASEFCLHTARQYALDRMQFGVPLARNQLIQKKLADMLTEITLGLHACLQLGRLKDQDKAAPEMVSLLKRNNCGKALDIARQARDMLGGNGISDEYHVIRHAMNLEAVNTYEGTHDIHALILGRAITGIQAFTASK | – | binds
